Series [1] concerns the target T1, crossbeta dOVA-2, ovalbumin at 1.0 mg/mL in PBS heated five cycles from 30 to 85 C, P01012.
T1 chain: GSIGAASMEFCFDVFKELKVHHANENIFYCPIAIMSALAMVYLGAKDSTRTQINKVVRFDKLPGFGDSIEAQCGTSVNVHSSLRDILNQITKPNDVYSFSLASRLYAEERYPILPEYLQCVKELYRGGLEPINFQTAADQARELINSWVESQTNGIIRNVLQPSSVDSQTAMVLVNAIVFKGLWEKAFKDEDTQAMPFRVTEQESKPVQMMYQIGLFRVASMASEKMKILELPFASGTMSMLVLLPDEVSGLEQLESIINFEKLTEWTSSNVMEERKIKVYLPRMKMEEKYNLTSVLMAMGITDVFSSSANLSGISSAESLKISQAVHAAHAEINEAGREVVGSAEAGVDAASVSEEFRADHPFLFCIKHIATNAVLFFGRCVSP

Series [2] has as its target crossbeta factor VIII form 12, Helixate kept at 37 C for 1 week, P00451.
Series [3] addresses misfolded H5 of H5N1 strain A/Vietnam/1203/04, cH5-2.
Series [4] has as its target non-treated H5 of H5N1 strain A/Vietnam/1203/04 (nH5), Protein Sciences.
Series [5] concerns the target crossbeta FVIII-5 (cFVIII-5), Helixate kept at 95 C for 5 minutes.
In series [6] the target is misfolded H5 of H5N1 strain A/Vietnam/1203/04, cH5-4.
Series [7] concerns the target misfolded H5 of H5N1 strain A/Vietnam/1203/04, cH5-3.
For series [8], the target named is T2, crossbeta nOVA, ovalbumin dissolved in PBS at 1.0 mg/mL, P01012.
T2 chain: T1 chain

Series [9] addresses T3, crossbeta dOVA-3, ovalbumin at 1 mg/ml in PBS incubated about 16 h at 75 C, P01012.
T3 chain: T1 chain

The target in series [10] is T4, crossbeta dOVA-1, ovalbumin at 5.2 mg/ml in HBS treated with HCl for 40 minutes at 37 C and neutralized, P01012.
T4 chain: T1 chain

For series [11], the target named is misfolded H5 of H5N1 strain A/Vietnam/1203/04, cH5-1.
For series [12], the target named is crossbeta FVIII-1 (cFVIII-1), Helixate kept at 4 C for 20 hours.
Chain of crossbeta FVIII-1 (cFVIII-1), Helixate kept at 4 C for 20 hours (chain, as listed by the source): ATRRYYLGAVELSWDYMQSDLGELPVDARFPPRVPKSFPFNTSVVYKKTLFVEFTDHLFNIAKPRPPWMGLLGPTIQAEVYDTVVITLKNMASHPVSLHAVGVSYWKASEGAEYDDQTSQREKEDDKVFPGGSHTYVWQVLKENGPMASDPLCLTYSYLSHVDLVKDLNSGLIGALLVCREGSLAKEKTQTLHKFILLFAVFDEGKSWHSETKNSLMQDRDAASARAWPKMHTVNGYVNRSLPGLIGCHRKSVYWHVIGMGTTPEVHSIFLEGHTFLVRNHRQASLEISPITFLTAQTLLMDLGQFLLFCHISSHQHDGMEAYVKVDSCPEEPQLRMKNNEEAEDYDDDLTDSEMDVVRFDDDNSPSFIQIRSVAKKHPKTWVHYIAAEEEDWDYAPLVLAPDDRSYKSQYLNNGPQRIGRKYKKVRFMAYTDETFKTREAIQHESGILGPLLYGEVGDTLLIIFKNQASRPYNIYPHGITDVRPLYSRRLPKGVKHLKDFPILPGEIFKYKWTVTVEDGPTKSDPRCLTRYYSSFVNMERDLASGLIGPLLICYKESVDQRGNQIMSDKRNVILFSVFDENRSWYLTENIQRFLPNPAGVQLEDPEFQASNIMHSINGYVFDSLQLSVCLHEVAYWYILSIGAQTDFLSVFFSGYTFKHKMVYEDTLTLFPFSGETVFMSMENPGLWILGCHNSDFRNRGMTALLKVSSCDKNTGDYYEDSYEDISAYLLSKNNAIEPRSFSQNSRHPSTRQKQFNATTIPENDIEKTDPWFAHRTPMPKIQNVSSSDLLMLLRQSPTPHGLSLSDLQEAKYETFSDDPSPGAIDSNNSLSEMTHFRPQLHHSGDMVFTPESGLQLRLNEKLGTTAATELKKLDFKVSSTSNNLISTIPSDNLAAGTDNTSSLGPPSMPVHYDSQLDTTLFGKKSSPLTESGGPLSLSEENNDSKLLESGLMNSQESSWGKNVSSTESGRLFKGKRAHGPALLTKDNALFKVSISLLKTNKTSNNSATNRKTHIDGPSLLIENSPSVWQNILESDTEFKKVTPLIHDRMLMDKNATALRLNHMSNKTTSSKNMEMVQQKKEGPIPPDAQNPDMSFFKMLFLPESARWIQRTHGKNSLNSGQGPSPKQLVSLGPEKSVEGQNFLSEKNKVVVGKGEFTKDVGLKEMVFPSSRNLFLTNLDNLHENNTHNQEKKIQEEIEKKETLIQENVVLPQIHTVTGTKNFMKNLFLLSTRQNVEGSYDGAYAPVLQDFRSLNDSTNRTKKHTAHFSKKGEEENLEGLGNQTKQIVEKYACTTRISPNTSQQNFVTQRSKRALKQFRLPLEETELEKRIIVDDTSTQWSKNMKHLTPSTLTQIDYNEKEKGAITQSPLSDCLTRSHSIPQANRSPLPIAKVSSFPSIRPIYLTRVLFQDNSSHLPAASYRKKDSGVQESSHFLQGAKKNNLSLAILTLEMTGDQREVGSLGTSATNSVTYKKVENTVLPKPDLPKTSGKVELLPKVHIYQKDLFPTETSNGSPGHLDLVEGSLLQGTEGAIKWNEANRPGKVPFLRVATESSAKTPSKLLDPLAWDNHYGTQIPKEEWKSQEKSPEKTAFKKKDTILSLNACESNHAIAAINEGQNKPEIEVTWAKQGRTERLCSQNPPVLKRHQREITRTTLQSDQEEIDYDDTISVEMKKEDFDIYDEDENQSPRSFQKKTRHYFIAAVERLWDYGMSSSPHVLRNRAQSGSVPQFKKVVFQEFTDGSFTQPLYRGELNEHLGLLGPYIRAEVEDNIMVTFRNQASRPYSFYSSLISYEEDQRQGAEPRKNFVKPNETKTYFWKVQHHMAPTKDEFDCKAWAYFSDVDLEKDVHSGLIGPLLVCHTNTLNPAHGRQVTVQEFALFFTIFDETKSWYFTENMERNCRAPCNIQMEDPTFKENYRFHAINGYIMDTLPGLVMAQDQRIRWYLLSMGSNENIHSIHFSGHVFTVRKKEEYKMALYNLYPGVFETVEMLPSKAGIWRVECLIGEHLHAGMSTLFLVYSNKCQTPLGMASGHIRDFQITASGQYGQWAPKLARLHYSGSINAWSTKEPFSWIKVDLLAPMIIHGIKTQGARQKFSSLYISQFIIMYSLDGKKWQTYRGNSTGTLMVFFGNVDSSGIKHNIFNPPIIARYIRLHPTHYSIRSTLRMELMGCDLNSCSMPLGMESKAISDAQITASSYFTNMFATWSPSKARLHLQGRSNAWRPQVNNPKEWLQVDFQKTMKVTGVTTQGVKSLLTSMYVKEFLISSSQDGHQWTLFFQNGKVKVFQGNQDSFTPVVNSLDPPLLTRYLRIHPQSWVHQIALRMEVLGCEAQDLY

From US20110052564 come the findings set out here.

Chain of crossbeta factor VIII form 12, Helixate kept at 37 C for 1 week, P00451 (P00451 whole entry, looked up): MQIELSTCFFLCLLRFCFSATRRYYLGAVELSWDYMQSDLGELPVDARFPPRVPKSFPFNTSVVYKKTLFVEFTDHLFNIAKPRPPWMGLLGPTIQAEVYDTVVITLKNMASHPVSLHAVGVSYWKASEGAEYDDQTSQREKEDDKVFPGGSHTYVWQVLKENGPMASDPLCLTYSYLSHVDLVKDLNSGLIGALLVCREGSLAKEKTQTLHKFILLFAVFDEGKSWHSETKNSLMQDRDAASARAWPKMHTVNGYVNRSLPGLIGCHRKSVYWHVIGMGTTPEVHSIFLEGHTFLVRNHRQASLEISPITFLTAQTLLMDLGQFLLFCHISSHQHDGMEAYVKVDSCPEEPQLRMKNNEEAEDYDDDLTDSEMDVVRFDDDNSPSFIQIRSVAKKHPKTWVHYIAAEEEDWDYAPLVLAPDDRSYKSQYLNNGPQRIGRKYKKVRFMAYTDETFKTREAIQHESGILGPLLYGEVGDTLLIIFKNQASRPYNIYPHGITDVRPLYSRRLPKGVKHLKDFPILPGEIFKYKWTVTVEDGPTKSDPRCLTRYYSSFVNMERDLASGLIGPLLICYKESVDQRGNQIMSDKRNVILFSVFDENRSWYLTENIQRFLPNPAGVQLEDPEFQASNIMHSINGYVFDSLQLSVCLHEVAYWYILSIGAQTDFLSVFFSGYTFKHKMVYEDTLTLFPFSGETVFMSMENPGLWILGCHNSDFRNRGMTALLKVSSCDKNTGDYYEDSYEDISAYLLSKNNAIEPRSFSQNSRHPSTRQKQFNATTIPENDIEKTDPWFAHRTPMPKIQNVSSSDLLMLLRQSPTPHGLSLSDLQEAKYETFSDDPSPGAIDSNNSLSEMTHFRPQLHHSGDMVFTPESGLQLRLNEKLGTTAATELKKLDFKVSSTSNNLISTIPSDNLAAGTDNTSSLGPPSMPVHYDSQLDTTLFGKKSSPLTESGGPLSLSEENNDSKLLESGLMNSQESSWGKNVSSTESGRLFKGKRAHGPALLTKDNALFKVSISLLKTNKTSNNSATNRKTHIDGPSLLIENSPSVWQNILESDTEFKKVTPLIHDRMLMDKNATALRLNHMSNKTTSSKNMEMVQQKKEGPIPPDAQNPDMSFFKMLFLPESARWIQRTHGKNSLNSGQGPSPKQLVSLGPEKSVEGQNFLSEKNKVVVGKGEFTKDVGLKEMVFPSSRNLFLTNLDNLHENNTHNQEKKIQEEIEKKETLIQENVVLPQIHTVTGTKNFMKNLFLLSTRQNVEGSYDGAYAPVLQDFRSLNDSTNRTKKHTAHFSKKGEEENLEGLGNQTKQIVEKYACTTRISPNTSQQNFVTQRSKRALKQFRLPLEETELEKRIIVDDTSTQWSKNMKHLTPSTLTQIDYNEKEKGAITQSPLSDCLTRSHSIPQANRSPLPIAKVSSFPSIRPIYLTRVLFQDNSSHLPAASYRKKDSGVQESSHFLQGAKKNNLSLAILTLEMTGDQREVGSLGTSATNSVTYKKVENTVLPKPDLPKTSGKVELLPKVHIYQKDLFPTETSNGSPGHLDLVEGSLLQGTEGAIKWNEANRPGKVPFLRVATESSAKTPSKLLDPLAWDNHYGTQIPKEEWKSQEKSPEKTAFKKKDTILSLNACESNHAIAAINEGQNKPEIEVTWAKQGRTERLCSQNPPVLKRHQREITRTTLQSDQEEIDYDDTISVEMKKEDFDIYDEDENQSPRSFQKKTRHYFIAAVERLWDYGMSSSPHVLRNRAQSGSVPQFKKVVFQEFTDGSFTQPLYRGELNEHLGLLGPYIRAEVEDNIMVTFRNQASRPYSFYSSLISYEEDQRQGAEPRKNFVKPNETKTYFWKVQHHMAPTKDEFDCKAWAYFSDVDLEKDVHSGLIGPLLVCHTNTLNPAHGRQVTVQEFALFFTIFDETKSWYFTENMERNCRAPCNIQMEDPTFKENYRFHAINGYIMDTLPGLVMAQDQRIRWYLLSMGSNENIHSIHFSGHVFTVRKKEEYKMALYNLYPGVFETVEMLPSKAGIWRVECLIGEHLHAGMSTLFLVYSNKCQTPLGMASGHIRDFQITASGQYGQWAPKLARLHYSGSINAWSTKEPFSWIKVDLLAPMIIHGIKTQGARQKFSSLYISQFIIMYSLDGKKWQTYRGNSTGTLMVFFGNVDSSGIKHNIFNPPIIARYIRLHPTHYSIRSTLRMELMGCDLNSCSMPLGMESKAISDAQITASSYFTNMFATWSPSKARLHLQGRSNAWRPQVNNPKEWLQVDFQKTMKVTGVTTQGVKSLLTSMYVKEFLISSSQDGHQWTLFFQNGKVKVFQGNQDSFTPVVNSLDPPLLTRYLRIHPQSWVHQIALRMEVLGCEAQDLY
Chain of crossbeta FVIII-5 (cFVIII-5), Helixate kept at 95 C for 5 minutes (chain, as listed by the source): as the sequence (chain, as listed by the source) above

B1: tissue type plasminogen activator (tPA; Actilyse, Boehringer-Ingelheim) (protein)
chain: SYQVICRDEKTQMIYQQHQSWLRPVLRSNRVEYCWCNSGRAQCHSVPVKSCSEPRCFNGGTCQQALYFSDFVCQCPEGFAGKCCEIDTRATCYEDQGISYRGTWSTAESGAECTNWNSSALAQKPYSGRRPDAIRLGLGNHNYCRNPDRDSKPWCYVFKAGKYSSEFCSTPACSEGNSDCYFGNGSAYRGTHSLTESGASCLPWNSMILIGKVYTAQNPSAQALGLGKHNYCRNPDGDAKPWCHVLKNRRLTWEYCDVPSCSTCGLRQYSQPQFRIKGGLFADIASHPWQAAIFAKHRRSPGERFLCGGILISSCWILSAAHCFQERFPPHHLTVILGRTYRVVPGEEEQKFEVEKYIVHKEFDDDTYDNDIALLQLKSDSSRCAQESSVVRTVCLPPADLQLPDWTECELSGYGKHEALSPFYSERLKEAHVRLYPSSRCTSQHLLNRTVTDNMLCAGDTRSGGPQANLHDACQGDSGGPLVCLNDGRMTLVGIISWGLGCGQKDVPGVYTKVTNYLDWIRDNMRP
On to B1, for which the Activation at 10 ug/mL was found to be 107% in series [1], 48.8% in [8], 60.9% in series [9] and 97.4% in series [10]. In series [1], this protein returned an Activation at 10 ug/mL (row is the reference dOVA-2 at 80, set at 100%) of 100%. Besides, the Activation at 25 ug/mL in series [1] amounted to 107%; in [8], 48.1%; in series [9], 79%; in series [10] it was 136%. Also, the Activation at 25 ug/mL (row is the reference dOVA-2 at 80, set at 100%) in [1] amounted to 100%. Moreover, the “tPA/Plg activation assay, relative crossbeta content compared to a misfolded ovalbumin standard” value in [2] was “approximately 50, 75 and 125%”; in [5], “approximately 50, 75 and 125%”; in [12], “approximately 50, 75 and 125%”. The “tPA mediated plasminogen activation assay” value is reported as “cH5-2 (150% of standard)” in [3]; “nH5 (140% of standard)” in [4]; “cH5-4 (37% of standard)” in series [6]; “cH5-3 (200% of standard)” in series [7]; “cH5-1 (50% of standard)” in series [11].
